Data published in the DeepSol protein solubility set.

test: soluble on expression in E. coli; label from the status in PepcDB or PDB records

Sequence | soluble on expression in E. coli
MATAAETSASEPEAESKAGPKADGEEDEVKAARTRRKVLSRAVAAATYKTMGPAWDQQEEGVSESDGDEYAMASSAESSPGEYEWEYDEEEEKNQLEIERLEEQLSINVYDYNCHVDLIRLLRLEGELTKVRMARQKMSEIFPLTEELWLEWLHDEISMAQDGLDREHVYDLFEKAVKDYICPNIWLEYGQYSVGGIGQKGGLEKVRSVFERALSSVGLHMTKGLALWEAYREFESAIVEAARLEKVHSLFRRQLAIPLYDMEATFAEYEEWSEDPIPESVIQNYNKALQQLEKYKPYEEALLQAEAPRLAEYQAYIDFEMKIGDPARIQLIFERALVENCLVPDLWIRYSQYLDRQLKVKDLVLSVHNRAIRNCPWTVALWSRYLLAMERHGVDHQVISVTFEKALNAGFIQATDYVEIWQAYLDYLRRRVDFKQDSSKELEELRAAFTRALEYLKQEVEERFNESGDPSCVIMQNWARIEARLCNNMQKARELWDSIMTRGNAKYANMWLEYYNLERAHGDTQHCRKALHRAVQCTSDYPEHVCEVLLTMERTEGSLEDWDIAVQKTETRLARVNEQRMKAAEKEAALVQQEEEKAEQRKRARAEKKALKKKKKIRGPEKRGADEDDEKEWGDDEEEQPSKRRRVENSIPAAGETQNVEVAAGPAGKCAAVDVEPPSKQKEKAASLKRDMPKVLHDSSKDSITVFVSNLPYSMQEPDTKLRPLFEACGEVVQIRPIFSNRGDFRGYCYVEFKEEKSALQALEMDRKSVEGRPMFVSPCVDKSKNPDFKVFRYSTSLEKHKLFISGLPFSCTKEELEEICKAHGTVKDLRLVTNRAGKPKGLAYVEYENESQASQAVMKMDGMTIKENIIKVAISNPPQRKVPEKPETRKAPGGPMLLPQTYGARGKGRTQLSLLPRALQRPSAAAPQAENGPAAAPAVAAPAATEAPKMSNADFAKLFLRK | soluble
MATENPQTWALWLILSEMASDMQEDKKVAKILVLGPPKAGKTTLCTFLADFMEDGDTLKKGEDSGERERKFEFEFTSVYRPTKGVRIQEFETHEFFTEQEQNELGGTRRLEDSEIQLWDVSGDKKYEDCWPAIKENAEGVILVVNPEEHKGSDLQQWFYEFVEKENIDLSCVMVILNEQGAKKTNHEQISGFEILPKLRGVHHVAHHFGSEAMQVKMEVNSFMASVLKMDQRQMGSGVDHGLGYADEQEDDF | not soluble
MATFKDFRNNVKPNWCPGCGDFSVQAAIQKAAANIGLEPEEVAIITGIGCSGRLSGYINSYGVHSIHGRALPLAQGVKMANKDLTVIASGGDGDGYAIGMGHTIHALRRNMNMTYIVMDNQIYGLTKGQTSPSSAVGFVTKTTPKGNIEKNVAPLELALSSGATFVAQGFSSDIKGLTKLIEDAINHDGFSFVNVFSPCVTYNKINTYDWFKEHLTSVDDIENYDSTDKQLATKTVIEHESLVTGIVYQDKETPSYESQIKELDDTPLAKRDIKITEDTFNALTEQFI | not soluble
MATFYEVIVRVPFDVEEHLPGISDSFVDWVTGQIWELPPESDLNLTLVEQPQLTVADRIRRVFLYEWNKFSKQESKFFVQFEKGSEYFHLHTLVETSGISSMVLGRYVSQIRAQLVKVVFQGIEPQINDWVAITKVKKGGANKVVDSGYIPAYLLPKVQPELQWAWTNLDEYKLAALNLEERKRLVAQFLAESSQRS | soluble
MATLEITDIALVQPSHQPLSNDQTLSLSHLDNDNNLHVSFRYLRVYSSSSSTVAGESPSAVVSASLATALVHYYPLAGSLRRSASDNRFELLCSAGQSVPLVNATVNCTLESVGYLDGPDPGFVERLVPDPTREEGMVNPCILQVTMFQCGGWVLGASIHHAICDGLGASLFFNAMAELARGATKISIEPVWDRERLLGPREKPWVGAPVRDFLSLDKDFDPYGQAIGDVKRDCFFVTDDSLDQLKAQLLEKSGLNFTTFEALGAYIWRAKVRAAKTEEKENVKFVYSINIRRLMNPPLPKGYWGNGCVPMYAQIKAGELIEQPIWKTAELIKQSKSNTSDEYVRSFIDFQELHHKDGINAGTGVTGFTDWRYLGHSTIDFGWGGPVTVLPLSNKLLGSMEPCFFLPYSTDAAAGSKKDSGFKVLVNLRESAMPEFKEAMDKFHKGEFALS | soluble
MATPFDGSNDATESRLLQLGRERLDPILAQQSDALQTQLSNQGIKLGSAAYDRAMTQQALHANDATDQLILQGHGQAFAEGQAIRNQPINEITALLSGSQVSNPQAAAYTPSTIPTTDNAGIIANNYQQKMDAYNAQMSQASSLAGGLFGLGGKLISLSDDDAKKDKERLADITPEMGLWKFHYKGEPADAPMRLGLMASEVEKVRPDAVSRRPDGYRQVDYGKALSLGALEHHHHHH | not soluble
MATPYVPVPMPIGNSASSFTNNRNQRSSSFGSVSTSSTSSKGQLEDSAVGSLKQTNVQDQMDSASSMCGSPLIRTKFTGTDSSIEYSARPREAEEQHPEAVNWEDRPSTPTILGYEVMEERAKFTVYKILVKKSPEESWVVFRRYTDFSRLNDKLKEMFPGFRLALPPKRWFKDNYNAEFLEDRQLGLQAFLQNLVAHKDIANCLAVREFLCLDDPPGPFDSLEESRAFCETLEETNYHLQRELLEKQKEVESLKKLLGEKQLHIDALETRIRTLSLEPGASLYVSRAEGGQILRVEPSVLQVNRDVLDEESRADHKPHFNSREAGSVIAGIEVAQLAYNAEDD | soluble
MATRLNISFDSDLLESISSEFDLRAPNKEALRQLVFTLDGDYEPSIMQVLNLATGVGKTYLMAAFVEYLRRQGVGNVVIVTPGKTVQAKTVQNFTPGSPRYITGSVVPPEVVTPQDYSAWVARQNGAAQLSFGHEVPILAFIFNIQQLIAPKSTEGDTHGNTQDAMRRKPRRFDENAGVLFDYLKGLDDLVVIADESHLYGSSAIAFNAALKELDPAATIGLTASVDKKSDHVIYHYPLFRAIQDKYVKAPVLAFRKTGYGTDEASEEQQLRDALQLRSIKQVYYDSFAASENRKHVNAVVFVVCSDVDHATQVTELLRSPEYLGNDDAVLQVDSKHEDELTQRRLNELDRPHSPVLAVVSVNKLKEGWDVRNIAVVVTLRAMASEVLTQQTMGRGLRLPFGHYTGVWQIDQLDIIAHQSFTELLNAENVLHQFGLEEAVADLDKAQVEAAILKAAETATSPRLGTSLTDTGVIQPGDVAAHEAGVWLIGDSSNSDDLQAGIVPVGGENSTRTPSVGVREITDPAPEGGTGWELVSIERNPAFADVTYQFPVTTMTVQQPSIDLSEIGDDTIEQAARRVTSAGDVLLRKEIIAVLGKKLRAEDRESAEVDSVHVDEDDAKNALVKLVLNMSLVPKTEQTARYVAAFLVPKFMQSVMFSGWTVKSLDSARTELLKLIQNYTVETLRSTREVPSIHPKSMPSNGYTLPLGQKVHDQIETREQFVRSQVYGGWFKSLFAEESFDSFTGEYQLARLLNTSPGIVWWHRLHPQDQAFVFYNAKDRYFPDFVAMDVNGVHWIIEGKSERGRDDAQVQAKRKAAEALVRRLVAEDAYADQLWGYLIAYEQDIARADSWEDLKAFASPVNNAL | not soluble
MATSAMFILDLKGKTIISRNYRGDIDMTAIDKFIHLLMEKEEEGSAAPVLTYQDTNFVFIKHTNIYLVSACRSNVNVTMILSFLYKCVEVFSEYFKDVEEESVRDNFVVIYELLDEMMDFGFPQTTESRILQEYITQEGQKLISAPRPPMAVTNAVSWRSEGIKYRKNEVFLDVIESVNMLASANGTVLQSEIVGSVKMRVYLTGMPELRLGLNDKVLFEGSGRGKSKSVELEDVKFHQCVRLSRFDTDRTISFIPPDGAFELMSYRLTTVVKPLIWIETSIERHSHSRVSFIIKAKSQFKRRSTANNVEIIIPVPSDADSPKFKTSIGSVKYTPEQSAFVWTIKNFPGGKEYLLTAHLSLPSVMSEESEGRPPIKVKFEIPYFTTSGIQVRYLKIIEKSGYQALPWVRYITQNGEYEMRMK | not soluble
MATSLDRDKEAVLRALRPYLEGTGTRLFLFGSFARGEGRQASDLDLALLSPVPLKDLMPLLREALEEAPVVRRVDLVDLAEAEPAFRERVLREGVLWAEF | soluble
MATTKPYRVLLYYMYTTIENPEEFAAEHLEFCNSLELKGRILVAKEGINGTCSGTVEQTEKYMEAMNNDPRFDGIVFKIDEADGHAFKKMHVRPRPELVTLRLEDDINPHEITGKYLEPKDFYEAMKQEDTVIIDARNDYEFDLGHFKGAIKPDIESFRELPDWIRENKEVLEGKKILTYCTGGIRCEKFSGWLVREGYEDVSQLHGGIVTYGKDPEVQGELWDGQCYVFDERIAVPVNQKEHVIVGKDHFTGEPCERYVNCANPECNKKILCSEENEAKYLRACSHECRVSPRNRYVIQHELTEEQVAAALEQIEAGKLEHHHHHH | not soluble
